In patent US20140087995A1 (published 2014):
Numbered stars: 1 amine (or outer) side, 2 acyl side, 3 side chain; on linkers, the order of the positions; unused ones are H or OH. Bridge positions count the residues as written; N and C are the ends. Side chains are listed from the residue outwards. Ends that are not written are not given here. * marks the point of attachment. C20 diacid = O=C(O)CCCCCCCCCCCCCCCCCCC(=O)*; γGlu = O=C(O)[C@H](CCC(=O)[*:2])N[*:1]

B1: N^ε1-[(4S)-4-carboxy-4-(19-carboxynonadecanoylamino)butanoyl]-[Arg14,Arg17,Pro21,Pro27]-h-amylin (peptide)
peptide: K([γGlu-C20 diacid])CNTATCATQRLARFLRHSSPNFGAIPSSTNVGSNTY-NH2
modifications: disulfide 2-7; N-terminus assumed
SMILES: CC[C@H](C)[C@H](NC(=O)[C@H](C)NC(=O)CNC(=O)[C@H](Cc1ccccc1)NC(=O)[C@H](CC(N)=O)NC(=O)[C@@H]1CCCN1C(=O)[C@H](CO)NC(=O)[C@H](CO)NC(=O)[C@H](Cc1c[nH]cn1)NC(=O)[C@H](CCCNC(=N)N)NC(=O)[C@H](CC(C)C)NC(=O)[C@H](Cc1ccccc1)NC(=O)[C@H](CCCNC(=N)N)NC(=O)[C@H](C)NC(=O)[C@H](CC(C)C)NC(=O)[C@H](CCCNC(=N)N)NC(=O)[C@H](CCC(N)=O)NC(=O)[C@@H](NC(=O)[C@H](C)NC(=O)[C@@H]1CSSC[C@H](NC(=O)[C@@H](N)CCCCNC(=O)CC[C@H](NC(=O)CCCCCCCCCCCCCCCCCCC(=O)O)C(=O)O)C(=O)N[C@@H](CC(N)=O)C(=O)N[C@@H]([C@@H](C)O)C(=O)N[C@@H](C)C(=O)N[C@@H]([C@@H](C)O)C(=O)N1)[C@@H](C)O)C(=O)N1CCC[C@H]1C(=O)N[C@@H](CO)C(=O)N[C@@H](CO)C(=O)N[C@H](C(=O)N[C@@H](CC(N)=O)C(=O)N[C@H](C(=O)NCC(=O)N[C@@H](CO)C(=O)N[C@@H](CC(N)=O)C(=O)N[C@H](C(=O)N[C@@H](Cc1ccc(O)cc1)C(N)=O)[C@@H](C)O)C(C)C)[C@@H](C)O
notes: also called compound 83
B2: N^ε1-[(4S)-4-carboxy-4-(19-carboxynonadecanoylamino)butanoyl]-[Glu14,Arg17,Pro21,Pro27,His34,Glu35]-h-amylin (peptide)
peptide: K([γGlu-C20 diacid])CNTATCATQRLAEFLRHSSPNFGAIPSSTNVGHETY-NH2
modifications: disulfide 2-7; N-terminus assumed
SMILES: CC[C@H](C)[C@H](NC(=O)[C@H](C)NC(=O)CNC(=O)[C@H](Cc1ccccc1)NC(=O)[C@H](CC(N)=O)NC(=O)[C@@H]1CCCN1C(=O)[C@H](CO)NC(=O)[C@H](CO)NC(=O)[C@H](Cc1c[nH]cn1)NC(=O)[C@H](CCCNC(=N)N)NC(=O)[C@H](CC(C)C)NC(=O)[C@H](Cc1ccccc1)NC(=O)[C@H](CCC(=O)O)NC(=O)[C@H](C)NC(=O)[C@H](CC(C)C)NC(=O)[C@H](CCCNC(=N)N)NC(=O)[C@H](CCC(N)=O)NC(=O)[C@@H](NC(=O)[C@H](C)NC(=O)[C@@H]1CSSC[C@H](NC(=O)[C@@H](N)CCCCNC(=O)CC[C@H](NC(=O)CCCCCCCCCCCCCCCCCCC(=O)O)C(=O)O)C(=O)N[C@@H](CC(N)=O)C(=O)N[C@@H]([C@@H](C)O)C(=O)N[C@@H](C)C(=O)N[C@@H]([C@@H](C)O)C(=O)N1)[C@@H](C)O)C(=O)N1CCC[C@H]1C(=O)N[C@@H](CO)C(=O)N[C@@H](CO)C(=O)N[C@H](C(=O)N[C@@H](CC(N)=O)C(=O)N[C@H](C(=O)NCC(=O)N[C@@H](Cc1c[nH]cn1)C(=O)N[C@@H](CCC(=O)O)C(=O)N[C@H](C(=O)N[C@@H](Cc1ccc(O)cc1)C(N)=O)[C@@H](C)O)C(C)C)[C@@H](C)O
notes: also called compound 107
B3: N^ε1-[(4S)-4-carboxy-4-(19-carboxynonadecanoylamino)butanoyl]-[Glu14,Arg17,Pro21,Pro27,Pro34,Glu35]-h-amylin (peptide)
peptide: K([γGlu-C20 diacid])CNTATCATQRLAEFLRHSSPNFGAIPSSTNVGPETY-NH2
modifications: disulfide 2-7; N-terminus assumed
SMILES: CC[C@H](C)[C@H](NC(=O)[C@H](C)NC(=O)CNC(=O)[C@H](Cc1ccccc1)NC(=O)[C@H](CC(N)=O)NC(=O)[C@@H]1CCCN1C(=O)[C@H](CO)NC(=O)[C@H](CO)NC(=O)[C@H](Cc1c[nH]cn1)NC(=O)[C@H](CCCNC(=N)N)NC(=O)[C@H](CC(C)C)NC(=O)[C@H](Cc1ccccc1)NC(=O)[C@H](CCC(=O)O)NC(=O)[C@H](C)NC(=O)[C@H](CC(C)C)NC(=O)[C@H](CCCNC(=N)N)NC(=O)[C@H](CCC(N)=O)NC(=O)[C@@H](NC(=O)[C@H](C)NC(=O)[C@@H]1CSSC[C@H](NC(=O)[C@@H](N)CCCCNC(=O)CC[C@H](NC(=O)CCCCCCCCCCCCCCCCCCC(=O)O)C(=O)O)C(=O)N[C@@H](CC(N)=O)C(=O)N[C@@H]([C@@H](C)O)C(=O)N[C@@H](C)C(=O)N[C@@H]([C@@H](C)O)C(=O)N1)[C@@H](C)O)C(=O)N1CCC[C@H]1C(=O)N[C@@H](CO)C(=O)N[C@@H](CO)C(=O)N[C@H](C(=O)N[C@@H](CC(N)=O)C(=O)N[C@H](C(=O)NCC(=O)N1CCC[C@H]1C(=O)N[C@@H](CCC(=O)O)C(=O)N[C@H](C(=O)N[C@@H](Cc1ccc(O)cc1)C(N)=O)[C@@H](C)O)C(C)C)[C@@H](C)O
B4: N^ε1-[(4S)-4-carboxy-4-(19-carboxynonadecanoylamino)butanoyl]-[Glu14,Arg17,Pro21,Pro27,Pro34,Arg35]-h-amylin (peptide)
peptide: K([γGlu-C20 diacid])CNTATCATQRLAEFLRHSSPNFGAIPSSTNVGPRTY-NH2
modifications: disulfide 2-7; N-terminus assumed
SMILES: CC[C@H](C)[C@H](NC(=O)[C@H](C)NC(=O)CNC(=O)[C@H](Cc1ccccc1)NC(=O)[C@H](CC(N)=O)NC(=O)[C@@H]1CCCN1C(=O)[C@H](CO)NC(=O)[C@H](CO)NC(=O)[C@H](Cc1c[nH]cn1)NC(=O)[C@H](CCCNC(=N)N)NC(=O)[C@H](CC(C)C)NC(=O)[C@H](Cc1ccccc1)NC(=O)[C@H](CCC(=O)O)NC(=O)[C@H](C)NC(=O)[C@H](CC(C)C)NC(=O)[C@H](CCCNC(=N)N)NC(=O)[C@H](CCC(N)=O)NC(=O)[C@@H](NC(=O)[C@H](C)NC(=O)[C@@H]1CSSC[C@H](NC(=O)[C@@H](N)CCCCNC(=O)CC[C@H](NC(=O)CCCCCCCCCCCCCCCCCCC(=O)O)C(=O)O)C(=O)N[C@@H](CC(N)=O)C(=O)N[C@@H]([C@@H](C)O)C(=O)N[C@@H](C)C(=O)N[C@@H]([C@@H](C)O)C(=O)N1)[C@@H](C)O)C(=O)N1CCC[C@H]1C(=O)N[C@@H](CO)C(=O)N[C@@H](CO)C(=O)N[C@H](C(=O)N[C@@H](CC(N)=O)C(=O)N[C@H](C(=O)NCC(=O)N1CCC[C@H]1C(=O)N[C@@H](CCCNC(=N)N)C(=O)N[C@H](C(=O)N[C@@H](Cc1ccc(O)cc1)C(N)=O)[C@@H](C)O)C(C)C)[C@@H](C)O
B5: N^ε1-[(4S)-4-carboxy-4-(19-carboxynonadecanoylamino)butanoyl]-[Glu14,Arg17,Pro21,Pro27,Arg34,Glu35]-h-amylin (peptide)
peptide: K([γGlu-C20 diacid])CNTATCATQRLAEFLRHSSPNFGAIPSSTNVGRETY-NH2
modifications: disulfide 2-7; N-terminus assumed
SMILES: CC[C@H](C)[C@H](NC(=O)[C@H](C)NC(=O)CNC(=O)[C@H](Cc1ccccc1)NC(=O)[C@H](CC(N)=O)NC(=O)[C@@H]1CCCN1C(=O)[C@H](CO)NC(=O)[C@H](CO)NC(=O)[C@H](Cc1c[nH]cn1)NC(=O)[C@H](CCCNC(=N)N)NC(=O)[C@H](CC(C)C)NC(=O)[C@H](Cc1ccccc1)NC(=O)[C@H](CCC(=O)O)NC(=O)[C@H](C)NC(=O)[C@H](CC(C)C)NC(=O)[C@H](CCCNC(=N)N)NC(=O)[C@H](CCC(N)=O)NC(=O)[C@@H](NC(=O)[C@H](C)NC(=O)[C@@H]1CSSC[C@H](NC(=O)[C@@H](N)CCCCNC(=O)CC[C@H](NC(=O)CCCCCCCCCCCCCCCCCCC(=O)O)C(=O)O)C(=O)N[C@@H](CC(N)=O)C(=O)N[C@@H]([C@@H](C)O)C(=O)N[C@@H](C)C(=O)N[C@@H]([C@@H](C)O)C(=O)N1)[C@@H](C)O)C(=O)N1CCC[C@H]1C(=O)N[C@@H](CO)C(=O)N[C@@H](CO)C(=O)N[C@H](C(=O)N[C@@H](CC(N)=O)C(=O)N[C@H](C(=O)NCC(=O)N[C@@H](CCCNC(=N)N)C(=O)N[C@@H](CCC(=O)O)C(=O)N[C@H](C(=O)N[C@@H](Cc1ccc(O)cc1)C(N)=O)[C@@H](C)O)C(C)C)[C@@H](C)O

Molecular target: T1, rat calcitonin receptor (rat, UniProt P32214 25-516)
T1 construct: whole, on cells; Membranes of transiently transfected BHK tk'ts 13 cells (Assay VIII); also called rCTR
T1 sequence (looked up): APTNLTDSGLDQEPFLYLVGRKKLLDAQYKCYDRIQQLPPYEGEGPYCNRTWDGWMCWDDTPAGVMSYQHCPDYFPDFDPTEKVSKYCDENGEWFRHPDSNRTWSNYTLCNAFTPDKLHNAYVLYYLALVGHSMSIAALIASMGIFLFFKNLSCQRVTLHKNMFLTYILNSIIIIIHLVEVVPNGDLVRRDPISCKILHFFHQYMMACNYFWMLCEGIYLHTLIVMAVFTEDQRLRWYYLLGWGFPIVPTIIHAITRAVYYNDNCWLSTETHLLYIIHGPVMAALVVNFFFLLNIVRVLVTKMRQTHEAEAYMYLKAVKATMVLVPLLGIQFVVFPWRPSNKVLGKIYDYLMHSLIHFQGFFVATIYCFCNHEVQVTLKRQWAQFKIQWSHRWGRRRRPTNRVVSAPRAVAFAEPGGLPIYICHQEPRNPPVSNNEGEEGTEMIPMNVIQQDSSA
Experiment: SPA competition with 125I-calcitonin, membranes of BHK cells with rat calcitonin receptor (Assay VIII)

Binder	IC50
B1	140 nM
B2	33.1 nM
K([γGlu-C20 diacid])CNTATCATQRLAEFLRHSSPNFGAIPSSTNVGPHTY-NH2 (disulfide 2-7)	5.43 nM
B3	10.4 nM
B4	15.4 nM
B5	86.1 nM

Molecular target: T2, rat amylin receptor (rat calcitonin receptor + rat RAMP 3) (rat, UniProt P32214 25-516; Q9JJ73 23-147)
T2 construct: whole, on cells; Membranes of transiently transfected BHK tk'ts 13 cells (Assay VI); also called rAmylin-R; rat amylin 3(a) receptor
T2 sequence (looked up) 1: T1 sequence (looked up)
T2 sequence (looked up) 2: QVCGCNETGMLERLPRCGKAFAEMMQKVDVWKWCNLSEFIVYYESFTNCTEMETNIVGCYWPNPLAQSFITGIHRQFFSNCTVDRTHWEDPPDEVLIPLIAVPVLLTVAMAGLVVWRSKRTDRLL
Experiment: SPA competition with 125I-rat amylin, membranes of BHK cells with rat calcitonin receptor + rat RAMP3 (Assay VI)

Binder	IC50
B1	2.83 nM
B2	0.958 nM
K([γGlu-C20 diacid])CNTATCATQRLAEFLRHSSPNFGAIPSSTNVGPHTY-NH2 (disulfide 2-7)	0.104 nM
B3	0.164 nM
B4	0.339 nM
B5	1.06 nM

Molecular target: T3, human calcitonin receptor (human, UniProt P30988 25-474)
T3 construct: whole, on cells; Membranes of a stably transfected BHK cell line (Assay VII); also called hCTR; hCT
T3 sequence (looked up): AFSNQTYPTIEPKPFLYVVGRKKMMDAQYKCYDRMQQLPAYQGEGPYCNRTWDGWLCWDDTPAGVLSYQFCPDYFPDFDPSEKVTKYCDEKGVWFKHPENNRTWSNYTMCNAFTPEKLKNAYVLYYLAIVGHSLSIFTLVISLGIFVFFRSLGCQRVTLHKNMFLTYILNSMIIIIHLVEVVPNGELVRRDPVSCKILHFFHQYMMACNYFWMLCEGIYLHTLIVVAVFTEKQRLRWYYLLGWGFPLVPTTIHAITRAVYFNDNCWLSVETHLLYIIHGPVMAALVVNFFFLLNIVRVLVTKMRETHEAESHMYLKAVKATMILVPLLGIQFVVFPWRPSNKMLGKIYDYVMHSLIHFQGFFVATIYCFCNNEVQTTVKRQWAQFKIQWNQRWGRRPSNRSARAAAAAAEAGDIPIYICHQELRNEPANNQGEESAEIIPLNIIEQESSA
Experiment: ratio IC50 human calcitonin receptor / IC50 human amylin receptor (reference)
In short: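 IC₅₀ values were derived by one-site competition analysis of SPA counts. Cell membranes (35 ng/μL) with SPA beads were incubated with test compounds for 120 min at 25° C in Hepes buffer, pH 7.4, containing CaCl2, MgCl₂, OA and Tween20.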

Binder	Ratio hCT/hAmylin binding
B1	146
B2	11.1
K([γGlu-C20 diacid])CNTATCATQRLAEFLRHSSPNFGAIPSSTNVGPHTY-NH2 (disulfide 2-7)	21.2
B3	13.3
B4	38.6
B5	28.5

Molecular target: T1, rat calcitonin receptor
Experiment: ratio IC50 rat calcitonin receptor / IC50 rat amylin receptor (reference)

Binder	Ratio rCT/rAmylin binding
B1	49.7
B2	34.6
K([γGlu-C20 diacid])CNTATCATQRLAEFLRHSSPNFGAIPSSTNVGPHTY-NH2 (disulfide 2-7)	52.2
B3	63.2
B4	45.5
B5	81.1
